T1: HBV surface antigen (HBsAg), S20-28, genotypes B and C peptide on HLA-A*02:01 (human)
T1 peptide: FLLTKILTI

B1: B01 TCR (HBV S20 TCR, modified, expressed on B01 TCR-T cells) (TCR, V domains shown)
V domain 1: SQELEQSPQSLIVQEGKNLTINCTSSKTLYGLYWYKQKYGEGLIFLMMLQKGGEEKSHEKITAKLDEKKQQSSLHITASQPSHAGIYLCGADTSTDKLIFGTGTRLQVFP
V domain 2: KAGVTQTPRYLIKTRGQQVTLSCSPISGHRSVSWYQQTPGQGLQFLFEYFSETQRNKGNFPGRFSGRQFSNSRSEMNVSTLELGDSALYLCASSHGGAYEQYFGPGTRLTVTE
B2: C01 TCR (HBV S20 TCR, modified, expressed on C01 TCR-T cells) (TCR, V domains shown)
V domain 1: SQQGEEDPQALSIQEGENATMNCSYKTSINNLQWYRQNSGRGLVHLILIRSNEREKHSGRLRVTLDTSKKSSSLLITASRAADTASYFCATDAYGQNFVFGPGTRLSVLP
V domain 2: GVIQSPRHEVTEMGQEVTLRCKPISGHDYLFWYRQTMMRGLELLIYFNNNVPIDDSGMPEDRFSAKMPNASFSTLKIQPSEPRDSAVYFCASGSNTEAFFGQGTRLTVVE
B3: A01 TCR (TCR, V domains shown)
Valpha: QQGEEDPQALSIQEGENATMNCSYKTSINNLQWYRQNSGRGLVHLILIRSNEREKHSGRLRVTLDTSKKSSSLLITASRAADTASYFCATDERDDMRFGAGTRLTVKP
Vbeta: GVIQSPRHEVTEMGQEVTLRCKPISGHDYLFWYRQTMMRGLELLIYFNNNVPIDDSGMPEDRFSAKMPNASFSTLKIQPSEPRDSAVYFCASSLNTEAFFGQGTRLTVV
B4: B01 TCR (TCR, V domains shown)
Valpha: QELEQSPQSLIVQEGKNLTINCTSSKTLYGLYWYKQKYGEGLIFLMMLQKGGEEKSHEKITAKLDEKKQQSSLHITASQPSHAGIYLCGADTSTDKLIFGTGTRLQVFP
Vbeta: GVTQTPRYLIKTRGQQVTLSCSPISGHRSVSWYQQTPGQGLQFLFEYFSETQRNKGNFPGRFSGRQFSNSRSEMNVSTLELGDSALYLCASSHGGAYEQYFGPGTRLTVT
B5: C01 TCR (TCR, V domains shown)
Valpha: QQGEEDPQALSIQEGENATMNCSYKTSINNLQWYRQNSGRGLVHLILIRSNEREKHSGRLRVTLDTSKKSSSLLITASRAADTASYFCATDAYGQNFVFGPGTRLSVLP
Vbeta: GVIQSPRHEVTEMGQEVTLRCKPISGHDYLFWYRQTMMRGLELLIYFNNNVPIDDSGMPEDRFSAKMPNASFSTLKIQPSEPRDSAVYFCASGSNTEAFFGQGTRLTVV

Key:
[1] = biological target: S20 epitope peptide presented by HLA-A*02:01 on HepG2 cells (Hepatitis B virus, genotypes A and D; …); test: cell-based or functional assay
[2] = biological target: T1, HBV surface antigen (HBsAg), S20-28, …; test: cytokine release

Binder | killing ratio on HepG2-LMS-LG cells (RTCA, 48 h, E:T 2:1, 1:2, 1:8) [1] | binding result [2]
B1 | > 60% | –
B2 | > 60% | –
B3 | – | recognises
B4 | – | recognises
B5 | – | recognises

Source: US20260021140A1 (SCG CELL THERAPY PTE, published 2026)
